# According to paper PMC4075454:
# Assays:
# WDR5 [1] = target: WDR5 (UniProt P61964); experiment: biotin-peptide streptavidin pull-down, anti-GST blot; details: reference: unmodified H3 peptide; sites T11
# WDR5 [2] = target: WDR5 (UniProt P61964); experiment: peptide pull-down, silver stain, MALDI-TOF identification; details: reference: unmodified H3 peptide; sites T11
substance,measurement,setting,value
histone H3 (synthetic tail peptides) 1-21 (from UniProt P68431) H3T11P peptide,binding against the reference,WDR5 [1],stronger
same,binding against the reference,WDR5 [2],stronger
